Data: US20060188526A1, “Method for enhancing the immune response to Staphylococcus aureus infection” (priority 2005, published 2006)

Assays:
[1] = system: C3b-coated S. aureus phagocytosis by human polymorphonuclear leukocytes (PMN); assay: Phagocytosis assay, C3b-coated S. aureus (purified complement components) incubated with factor H, factor I or both; type: cell-based; settings: compared with untreated C3b-coated S. aureus, factor H 40 μg/ml, factor I 4 μg/ml
Method: Bacterial strains and growth. Staphylococcus aureus strain Reynolds, capsule polysaccharide serotype 5, was used in all experiments. This strain has a pattern of C3-fragment deposition similar to other capsule polysaccharide serotype 5 and 8 strains—the serotypes that account for the majority of human S. aureus infections. Mid-logarithmic phase bacteria were grown in Columbia 2% NaCl broth at 37° C. with agitation for 2 hours to an optical densitometry of 0.7 to 1.3 at 600 nm. In midlogarithmic phase growth minimal capsule is expressed by strain Reynolds.
(§1) Opsonization with purified complement components. Washed bacteria (1×10^9 CFU in GVBS^++ buffer) were incubated with 0.35% IVIg for 30 min. at room temperature in order to sensitize the bacteria for activating the classical complement pathway. Antibody-coated bacteria were then incubated in 60% DGVBS^++ buffer with the purified human complement proteins C1, C4, C2, and C3 to generate the classical complement pathway C3-convertase and bind C3b to the S. aureus surface. […]
Phagocytosis assay. […] Bacteria and PMN were visualized by fluorescence microscopy using broad wavelength excitation and emission filters that allow visualization at 100× magnification. Microscope slides were blinded to the reader, and 100 neutrophils per slide were counted to determine the percent of PMN phagocytosing bacteria and total number of S. aureus ingested.

[2] = target: T1, C3b bound to S. aureus surface (Homo sapiens, UniProt P01024); assay: C3-fragments released from C3b-coated S. aureus with factor H, factor I or both (C3 ELISA, Western blot); type: biochemical
T1 construct: purchased Advance Research Technologies, San Diego, Calif
Method: as §1, with “surface. Bacteria were incubated with C1 (2 μg/ml) at 30° C. for 15 min., and then with C4 (10 μg/ml) at 37° C. for 45 min. Bacteria were then incubated with C2 (0.5 μg/ml) and C3 (10 μg/ml) together at 30° C. for 30 min. C3b-coated staphylococci were then incubated with factor H (40 μg/ml), factor 1 (4 μg/ml), or both factors for 30 min. at 37° C.” for “surface.”
(§2) Analysis of surface-bound and released C3-fragments. ELISA was used to quantitate total C3-fragment amount and iC3b amount as follows. […] Plates were washed 3 three times with PBS/Tween buffer and developed with TMB Plus (Accurate Chemical), stopped with 2.5 N H2SO4, and read at 450 nm.
Values for C3-fragments bound and iC3b bound to S. aureus opsonized in serum were calculated subtracting the values obtained with heat inactivated serum from the values obtained with NHS. […] Bound antibody was detected by enhanced chemiluminescence.

[3] = target: T1, C3b bound to S. aureus surface; assay: C3-fragments bound to C3b-coated S. aureus with factor H, factor I or both (ELISA, Western blot); type: biochemical
Method: Opsonization with purified complement components. Washed bacteria (1×10^9 CFU in GVBS^++ buffer) were incubated with 0.35% IVIg for 30 min. at room temperature in order to sensitize the bacteria for activating the classical complement pathway. Antibody-coated bacteria were then incubated in 60% DGVBS^++ buffer with the purified human complement proteins C1, C4, C2, and C3 to generate the classical complement pathway C3-convertase and bind C3b to the S. aureus surface. Bacteria were incubated with C1 (2 μg/ml) at 30° C. for 15 min., and then with C4 (10 μg/ml) at 37° C. for 45 min. Bacteria were then incubated with C2 (0.5 μg/ml) and C3 (10 μg/ml) together at 30° C. for 30 min. C3b-coated staphylococci were then incubated with factor H (40 μg/ml), factor 1 (4 μg/ml), or both factors for 30 min. at 37° C. The bacteria pellet was then sedimented and the supernatants recovered to measure C3-fragments released from the bacteria. The bacteria were then washed and treated with 0.05 ml of 25 mM methylamine (Sigma-Aldrich) for 60 min. at 37° C. to recover C3-fragments bound by ester bonds to the S. aureus surface. The stripped bacteria were sedimented and the supernatants containing previously surface bound C3-fragments were recovered for testing by ELISA and Western blot. […]
as §2
Values for C3-fragments bound and iC3b bound to S. aureus opsonized in serum were calculated subtracting the values obtained with heat inactivated serum from the values obtained with NHS. Methylamine supernatants of surface bound C3-fragments were analyzed by Western blot analysis performed with polyclonal goat anti-human C3 antibody (Advanced Research Technologies) and horseradish peroxidase-labeled rabbit anti-goat antibody (Sigma-Aldrich). Bound antibody was detected by enhanced chemiluminescence.

T1 sequence (P01024 749-1663): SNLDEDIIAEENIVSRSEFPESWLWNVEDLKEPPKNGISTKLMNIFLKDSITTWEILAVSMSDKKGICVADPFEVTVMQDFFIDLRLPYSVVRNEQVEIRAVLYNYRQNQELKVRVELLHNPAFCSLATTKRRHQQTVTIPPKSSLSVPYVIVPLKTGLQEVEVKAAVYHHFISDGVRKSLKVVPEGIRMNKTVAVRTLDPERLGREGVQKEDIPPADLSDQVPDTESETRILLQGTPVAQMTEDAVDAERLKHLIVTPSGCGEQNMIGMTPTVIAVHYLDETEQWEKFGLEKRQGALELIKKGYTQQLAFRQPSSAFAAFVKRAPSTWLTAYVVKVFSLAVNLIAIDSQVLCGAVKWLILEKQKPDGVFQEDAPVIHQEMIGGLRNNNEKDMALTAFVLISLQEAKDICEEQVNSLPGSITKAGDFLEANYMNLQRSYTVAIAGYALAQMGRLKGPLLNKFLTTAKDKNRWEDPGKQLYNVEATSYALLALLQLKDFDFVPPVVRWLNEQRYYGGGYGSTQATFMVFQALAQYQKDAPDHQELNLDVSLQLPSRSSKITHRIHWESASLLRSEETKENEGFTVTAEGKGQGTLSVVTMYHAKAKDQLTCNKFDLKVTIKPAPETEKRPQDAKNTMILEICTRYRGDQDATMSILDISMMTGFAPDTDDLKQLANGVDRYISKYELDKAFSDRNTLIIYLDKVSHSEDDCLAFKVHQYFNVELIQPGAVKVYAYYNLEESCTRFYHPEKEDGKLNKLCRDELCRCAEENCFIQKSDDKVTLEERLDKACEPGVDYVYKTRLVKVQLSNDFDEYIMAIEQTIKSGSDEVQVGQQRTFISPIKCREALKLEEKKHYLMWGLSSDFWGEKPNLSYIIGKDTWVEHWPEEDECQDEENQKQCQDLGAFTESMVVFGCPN
T1 sequence (P01024 23-667): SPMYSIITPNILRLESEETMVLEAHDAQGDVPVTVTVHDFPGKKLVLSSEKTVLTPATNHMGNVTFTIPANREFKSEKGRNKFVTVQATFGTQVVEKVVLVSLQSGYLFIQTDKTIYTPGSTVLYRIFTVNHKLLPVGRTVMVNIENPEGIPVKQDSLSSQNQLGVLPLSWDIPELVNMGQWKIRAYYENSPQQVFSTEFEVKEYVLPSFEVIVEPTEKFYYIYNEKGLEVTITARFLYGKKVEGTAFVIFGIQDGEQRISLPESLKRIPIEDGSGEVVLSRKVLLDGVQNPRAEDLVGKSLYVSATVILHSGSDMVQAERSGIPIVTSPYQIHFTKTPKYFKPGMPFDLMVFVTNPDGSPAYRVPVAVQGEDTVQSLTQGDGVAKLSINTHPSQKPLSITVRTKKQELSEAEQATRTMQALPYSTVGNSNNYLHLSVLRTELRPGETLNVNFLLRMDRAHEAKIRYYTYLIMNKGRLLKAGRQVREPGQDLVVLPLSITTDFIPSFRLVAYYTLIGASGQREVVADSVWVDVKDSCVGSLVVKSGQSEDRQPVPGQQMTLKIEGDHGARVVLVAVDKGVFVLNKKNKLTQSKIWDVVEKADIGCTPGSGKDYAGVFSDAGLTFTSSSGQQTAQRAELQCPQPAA

B1: factor I: purified human complement regulatory protein factor I, serum enzyme that cleaves C3b to iC3b (protein, UniProt P05156 19-583, looked up)
Complement factor I: KVTYTSQEDLVEKKCLAKKYTHLSCDKVFCQPWQRCIEGTCVCKLPYQCPKNGTAVCATNRRSFPTYCQQKSLECLHPGTKFLNNGTCTAEGKFSVSLKHGNTDSEGIVEVKLVDQDKTMFICKSSWSMREANVACLDLGFQQGADTQRRFKLSDLSINSTECLHVHCRGLETSLAECTFTKRRTMGYQDFADVVCYTQKADSPMDDFFQCVNGKYISQMKACDGINDCGDQSDELCCKACQGKGFHCKSGVCIPSQYQCNGEVDCITGEDEVGCAGFASVTQEETEILTADMDAERRRIKSLLPKLSCGVKNRMHIRRKRIVGGKRAQLGDLPWQVAIKDASGITCGGIYIGGCWILTAAHCLRASKTHRYQIWTTVVDWIHPDLKRIVIEYVDRIIFHENYNAGTYQNDIALIEMKKDGNKKDCELPRSIPACVPWSPYLFQPNDTCIVSGWGREKDNERVFSLQWGEVKLISNCSKFYGNRFYEKEMECAGTYDGSIDACKGDSGGPLVCMDANNVTYVWGVVSWGENCGKPEFPGVYTKVANYFDWISYHVGRPFISQYNV
decrease of percent of neutrophils phagocytosing C3b-coated S. aureus ([1]; FIG. 3A): 29%
decrease of number of C3b-coated S. aureus phagocytosed by 100 neutrophils ([1]; FIG. 3B): 40%
amounts of C3-fragments shed from the S. aureus surface ([2]; C3 ELISA, compared with incubation in buffer alone, FIG. 5A): increased significantly
form of C3-fragments shed, Western blot with polyclonal anti-C3 antibody ([2]; FIG. 5B): likely iC3b or possibly C3c
decrease of amount of total C3-fragments bound to C3b-coated S. aureus ([3]; C3 ELISA, compared to control bacteria (no factor H or I exposure), FIG. 4B): 58%
types of C3-fragments bound to the S. aureus surface, Western blot ([3]; compared with untreated C3b-coated S. aureus, FIG. 4C): less C3b and more iC3b
increase of amount of iC3b bound to S. aureus ([3]; iC3b ELISA, compared with untreated C3b-coated bacteria, FIG. 4A): 75%
